The target in this experiment is α‐synuclein preformed fibrils (UniProt P37840 1-140). Description: SPR. Background: SPR reads the build-up and loss of mass on a sensor chip optically.

B1: Recombinant mouse 24p3R protein (receptor)
chain: MPSARFGRRGIVLLTLGLVGPCGVGGAAAGSSTGIMALRFLLGFLLAGVDLGVYLMRLELCDPTQRLRVALAGELVGVGGHFLFLGLALVSKDWRFLQRMITAPCILFLFYGWPGLFLESARWLIVKRQIEEAQSVLRILAERNRPHGQMLGEEAQEALQELENTCPLPATSTFSFASLLNYRNIWKNLLILGFTNFIAHAIRHCYQPVGGGGSPSDFYLCSLLASGTAALACVFLGVTVDRFGRRGILLLSMTLTGIASLVLLGLWDYLNDAAITTFSVLGLFSSQASAILSTLLASEVIPTTVRGRGLGLIMALGALGGLSCPAQRLHMGHGAFLQHVVLAACALLCILSIMLLPETKRKLLPEVLRDGELCRRPSLLRQPPPNRCDHVPLLATPNPAL
What is called Kd is the equilibrium constant for the complex coming apart. Low readings indicate higher affinity, high ones lower affinity. Molecule B1 returned a Kd of 6.67 µM.
